From patent US20100062984A1, “FGF-23 POLYPEPTIDES” (priority 2007, published 2010) come the findings set out here.

The test system of one assay is normal rats. In words: Acute intravenous infusion of equimolar FGF-23 polypeptides in anesthetized rats, renal clearance. Type of assay: in vivo, rat. The following applies: for FENa (fractional excretion of sodium), control clearance / FEPi (fractional excretion of phosphate), control clearance: C = control clearance before infusion; for FENa (fractional excretion of sodium), control clearance / FEPi (fractional excretion of phosphate), control clearance / FENa (fractional excretion of sodium), experimental clearance / FEPi (fractional excretion of phosphate), experimental clearance: mean ± SE; for FENa (fractional excretion of sodium), experimental clearance / FEPi (fractional excretion of phosphate), experimental clearance: E = experimental clearance, i.v. infusion 1.24 nmol/kg/hour. How it is done:
Male Sprague Dawley rats weighing 300 g were purchased from Harlan Sprague Dawley Inc. (Madison Wis.). They were fed a standard rodent diet containing 0.7% phosphate and 0.5% calcium. All animals were fasted overnight prior to the experiment. On the day of the experiment, rats were anesthetized with an intraperitoneal injection of 100-150 mg/kg body weight of 5-sec-butyl-ethyl-2-thiobarbituricacid (Inactin, Byk Gulden Konstanz, Hamburg, Germany). The rats were placed on a heated table to maintain body temperature between 36-38° C. After a tracheostomy, a PE 50 catheter was placed in the left carotid artery to monitor mean arterial blood pressure (MAP) and to collect blood samples. Catheters were also placed in the left and right jugular veins for infusions. A solution containing 2% inulin in 0.9% NaCl plus 4.5% BSA was infused at a rate of 1.2 mL/hour in one catheter, and 0.9% NaCl was infused in the other catheter at a rate of 1.2 mL/hour. A catheter (PE 90) was placed in the bladder for urine collection. Acute infusion studies were performed using the following seven different groups of animals.
Group 1: Vehicle Time control (n=8). After a ninety-minute recovery period, one […] urine sample was taken (C1) and a blood sample was taken. One hour later a second 60-minute clearance was taken (C2).
Group 2: Effect of acute infusion of full length FGF-23 polypeptide (1.24 nmol/kg/hour, n=8). This protocol is identical to group 1 except that after the control collections, full-length recombinant FGF-23 polypeptide was added to the 0.9% saline infusion to deliver 1.24 nmol/kg/hour of full length FGF-23 polypeptide. After one hour of infusion, a sixty-minute clearance was taken.
Group 3: Effect of acute infusion of FGF-23(176-251) polypeptide (1.24 nmol/kg/hour, n=8). This protocol is identical to group 2 except for the sequence of the infused polypeptide.
Group 4: Effect of acute infusion of FGF-23(180-251) polypeptide (1.24 nmol/kg/hour, n=8). This protocol is identical to group 2 except for the sequence of the infused polypeptide.
Group 5: Effect of infusion of FGF-23(184-251) polypeptide (1.24 nmol/kg/hour, n=8). This protocol is identical to group 2 except for the sequence of the infused polypeptide.
Group 6: Effect of infusion of FGF-23(206-251) polypeptide (1.24 nmol/kg/hour, n=6). This protocol is identical to group 2 except for the sequence of the infused polypeptide.
Group 7: Effect of infusion of FGF-23(180-205) polypeptide (1.24 nmol/kg/hour, n=6). This protocol is identical to group 2 except for the sequence of the infused polypeptide.
(§1) Plasma and urine phosphate concentrations were determined using the method of Chen (Chen et al., Anal Chem., 28:1756-1758 (1956)). Inulin concentrations in plasma and urine were determined using the anthrone method (Führ et al., Klin. Wochenschr., 33.:729-730 (1955)). Sodium concentrations in urine were determined by ion selective electrode (EasyLyte Plus Analyzer, Medica Corp., Bedford, Mass.). Calcium concentrations were measured using atomic absorption spectrometry (Kumar et al., Biochemistry, 15:2420-2423 (1976)) with a Perkin Elmer Model 3300 Atomic Absorption Spectrometer (Perkin Elmer, Boston, Mass.). Serum 1α,25(OH)2D concentrations were measured using an RIA kit (Diasorin, Stillwater, Minn.).
Statistically significant differences between groups were evaluated by Student's t-test for comparison between two groups or by one-way analysis of variance (ANOVA) followed by Tukey's test for multiple comparisons. All values were expressed as mean±SE. A p value less than 0.05 was considered to be statistically significant.

Another assay deals with Fgf-23−/− mice. The assay is described as follows: Intraperitoneal injection into Fgf-23−/− mice, serum phosphate. The format is in vivo, mouse. Here is the method: To further examine the in vivo phosphaturic activity of the smallest FGF-23 fragment, 0.2 nmoles of FGF-23(180-205) polypeptide were injected twice intraperitoneally into Fgf-23^−/− mice. FGF-23 R176Q polypeptide was similarly injected into the mutant mice as a positive control, and saline was injected as a vehicle control. Fgf-23^−/− animals were generated as reported elsewhere (Sitara et al., Matrix Biol., 23:421-432 (2004)). To determine the in vivo effects of the C-terminal fragment FGF23(180-205) in the absence of endogenous FGF-23 activity, equimolar amounts (0.2 nmoles) of FGF-23 R176Q polypeptide, FGF-23(180-205) polypeptide, and vehicle (saline) were injected twice intraperitoneally into Fgf-23^−/− mice at 0 and 8 hours. Blood was obtained by tail bleeding or cheek pouch puncture of 3- to 6-week-old Fgf-23^−/− animals, 8 hours after the second injection (at 16 hours). Serum levels of phosphate were determined in pre- and post-injection mice using the Stanbio LiquiUV kit (Stanbio Laboratory, Boerne, Tex.).

A further assay relates to NaPi IIa-V5. The assay is described as follows: Surface expression of V5-tagged Na+-Pi IIa transporter in OK cells (immunofluorescence). The following applies: OK cells expressing V5-tagged transporter, three hour treatment. The format is cell-based, opossum. How it is done: To assess the mechanism by which these agents altered phosphate transport, the surface expression of an epitope tagged sodium phosphate transporter, NaPi IIa-V5, was examined. An OK cell line stably expressing a VS-tagged Na+-Pi IIa transporter was generated as described elsewhere (Berndt et al., Pflugers Arch., 451:579-587 (2006)). The presence of the transporter on the cell surface of OK-N+-Pi-IIa-V5 cells was carried out using immunohistochemical methods and reagents described elsewhere (Berndt et al., Pflugers Arch., 451:579-587 (2006)).

Assay [1] concerns opossum proximal tubular epithelial cells (OK). The assay is described as follows: OK cell Pi uptake assay. Type of assay: cell-based. Here is the method:
The OK cell Pi uptake assay was performed as described by Bowe et al. (Biochem Biophys Res Commun., 284:977-981 (2001)).

Another assay deals with rats. In words: Chronic (72 hour) intraperitoneal administration in rats, serum phosphate and 1α,25(OH)2D. Type of assay: in vivo, rat. To be noted: chronic (72 hour) administration, i.p. every 12 hours for three days. Here is the method:
as §1
Chronic animal studies were performed to determine the effect of chronic (72 hour) administration of FGF-23(176-251) polypeptide (1.24 nmol/kg/hour, n=5) or vehicle (PBS+0.1% BSA, n=6) on serum phosphate and 1α, 25 (OH)2 D concentrations. Rats received an intraperitoneal injection of FGF-23(176-251) polypeptide in 0.5 mL of normal saline every 12 hours for three days. At the end of three days, the animals were anesthetized and a terminal blood sample was taken.

The mark [2] stands for this setting: acute i.v. infusion of equimolar doses, rats.
Where [3] appears, read: listed as full length recombinant FGF-23 polypeptide.

“And” between values parts separate entries of the source, which are not always exact repeats. Identical values can stand only once.

For the molecule “FGF-23(206-251): synthetic FGF-23 fragment, residues 206-251, SEQ ID NO: 5 (CSQELPSAEDNSPMASDPLGVVRGGRVNTHAGGTGPEGCRPFAKFI; listed as Homo sapiens)”, in the assay with normal rats, the “FENa (fractional excretion of sodium), control clearance” value is 0.19 ± 0.04%; the “FEPi (fractional excretion of phosphate), control clearance” value came out at 22 ± 5%; the “FENa (fractional excretion of sodium), experimental clearance” value was 0.22 ± 0.05^ %; the “FEPi (fractional excretion of phosphate), experimental clearance” value is recorded as 29 ± 2^ %. For the same molecule, in the assay with normal rats (setting [2]), the “Effect on phosphate excretion (in words)” value is recorded as “did not increase” and the “Effect on sodium excretion (in words)” value was “did not increase”.
As to “FGF-23(180-205): synthetic FGF-23 fragment, residues 180-205, SAEDDSERDPLNVLKPRARMTPAPAS, SEQ ID NO: 6 (listed as Homo sapiens)”, the “Serum phosphate level post-injection” value in the assay on Fgf-23−/− mice (0.2 nmoles i.p. at 0 and 8 hours, blood at 16 hours, p<0.01 vs pre-injection, in mg/dL (unit assumed)) amounted to 10.95±0.62. In addition, in the assay with Fgf-23−/− mice (before injection, in mg/dL (unit assumed)), the “Serum phosphate level pre-injection” value was 14.64±0.51. Further, in the assay on normal rats, the “FENa (fractional excretion of sodium), control clearance” value is 0.4±0.1% and 0.39 ± 0.11%; the “FEPi (fractional excretion of phosphate), control clearance” value is on record as 10±2%; the “FENa (fractional excretion of sodium), experimental clearance” value is 1.0±0.2% and 1.01 ± 0.21 %; the “FEPi (fractional excretion of phosphate), experimental clearance” value amounted to 20±2%. The “Effect on phosphate excretion (in words)” value with normal rats (setting [2]) was “increases phosphate excretion significantly”.

B1: FGF-23(180-251): synthetic FGF-23 fragment, residues 180-251, SEQ ID NO: 3 (peptide, listed as Homo sapiens)
chain: SAEDDSERDPLNVLKPRARMTPAPASCSQELPSAEDNSPMASDPLGVVRGGRVNTHAGGTGPEGCRPFAKFI
B1: the “Amount of NaPiIIa-V5 detected on the cell surface (in words)” value in the assay on NaPi IIa-V5 is on record as “significant decreases”. Besides, the “Radiolabeled phosphorus uptake (in words)” value in assay [1] is reported as “directly inhibited”. Besides, in the assay on normal rats, the “FENa (fractional excretion of sodium), control clearance” value is 0.20±0.07% and 0.17 ± 0.07%; the “FEPi (fractional excretion of phosphate), control clearance” value is 14±3%; the “FENa (fractional excretion of sodium), experimental clearance” value is 0.80±0.17% and 0.76 ± 0.17 %; the “FEPi (fractional excretion of phosphate), experimental clearance” value was 26±3%. The “Effect on phosphate excretion (in words)” value with normal rats (setting [2]) is reported as “increases phosphate excretion significantly”.

B2: FGF-23(184-251): synthetic FGF-23 fragment, residues 184-251, SEQ ID NO: 4 (peptide, listed as Homo sapiens)
chain: DSERDPLNVLKPRARMTPAPASCSQELPSAEDNSPMASDPLGVVRGGRVNTHAGGTGPEGCRPFAKFI
Turning to B2, in the assay on normal rats, the “FENa (fractional excretion of sodium), control clearance” value was 0.3±0.1% and 0.27 ± 0.09%; the “FEPi (fractional excretion of phosphate), control clearance” value is reported as 16±3%; the “FENa (fractional excretion of sodium), experimental clearance” value is 0.6±0.16% and 0.63 ± 0.16 %; the “FEPi (fractional excretion of phosphate), experimental clearance” value came to 28±3%. In addition, the “Effect on phosphate excretion (in words)” value with normal rats (setting [2]) is listed as “increases phosphate excretion significantly”.

B3: FGF-23(25-251): full-length recombinant human FGF-23(25-251) polypeptide expressed in E. coli, SEQ ID NO: 1 (protein, listed as Homo sapiens)
chain: YPNASPLLGSSWGGLIHLYTATARNSYHLQIHKNGHVDGAPHQTIYSALMIRSEDAGFVVITGVMSRRYLCMDFRGNIFGSHYFDPENCRFQHQTLENGYDVYHSPQYHFLVSLGRAKRAFLPGMNPPPYSQFLSRRNEIPLIHFNTPIPRRHTRSAEDDSERDPLNVLKPRARMTPAPASCSQELPSAEDNSPMASDPLGVVRGGRVNTHAGGTGPEGCRPFAKFI
Consider B3, for which the “Amount of NaPiIIa-V5 detected on the cell surface (in words)” value in the assay on NaPi IIa-V5 was “significant decreases”. Also, the “Radiolabeled phosphorus uptake (in words)” value in assay [1] was “directly inhibited”. In the assay on normal rats (listed as FGF-23 Full Length), the “FENa (fractional excretion of sodium), control clearance” value is 0.26 ± 0.14%; the “FEPi (fractional excretion of phosphate), control clearance” value is recorded as 14 ± 3%; the “FENa (fractional excretion of sodium), experimental clearance” value turned out to be 0.76 ± 0.15 %; the “FEPi (fractional excretion of phosphate), experimental clearance” value was determined as 32 ± 5 %. In the assay on normal rats (setting [3]), the “FENa (fractional excretion of sodium), control clearance” value came to 0.3±0.1%; the “FEPi (fractional excretion of phosphate), control clearance” value came to 14±3%; the “FENa (fractional excretion of sodium), experimental clearance” value stood at 0.7±0.2%; the “FEPi (fractional excretion of phosphate), experimental clearance” value came out at 32±5%. Further, the “FE Ca after infusion” value in the assay on normal rats (acute i.v. infusion 1.24 nmol/kg/hour) came to 10.0±2.3%. Also, the “FE Ca before infusion” value in the assay on normal rats (control period before infusion) is given as 4.1±1.2%.

B4: FGF-23(176-251): synthetic FGF-23 fragment, residues 176-251, SEQ ID NO: 2 (peptide, listed as Homo sapiens)
chain: RHTRSAEDDSERDPLNVLKPRARMTPAPASCSQELPSAEDNSPMASDPLGVVRGGRVNTHAGGTGPEGCRPFAKFI
B4: the “Effect on serum Pi concentrations (in words)” value with Fgf-23−/− mice (given intraperitoneally) is “reduced”. In addition, the Serum phosphate concentration in the assay on rats (vehicle 2.19±0.11 mM, p=0.062) amounted to 1.85 ± 0.12 mM. Moreover, in the assay on rats (vehicle 114±7 pg/mL, p<0.05), the “Serum 1α,25(OH)2D concentration” value stood at 76 ± 11 pg/mL. Further, in the assay with normal rats, the “FENa (fractional excretion of sodium), control clearance” value was 0.90±0.15% and 0.87 ± 0.15%; the “FEPi (fractional excretion of phosphate), control clearance” value came to 15±2%; the “FENa (fractional excretion of sodium), experimental clearance” value came to 1.21±0.17%; the “FEPi (fractional excretion of phosphate), experimental clearance” value was found to be 33±2%.
